Substitutions are numbered along the chain they refer to.
T1: MBP-ORC1 wild type, full length (human, UniProt Q13415 1-861)
T1 sequence (looked up): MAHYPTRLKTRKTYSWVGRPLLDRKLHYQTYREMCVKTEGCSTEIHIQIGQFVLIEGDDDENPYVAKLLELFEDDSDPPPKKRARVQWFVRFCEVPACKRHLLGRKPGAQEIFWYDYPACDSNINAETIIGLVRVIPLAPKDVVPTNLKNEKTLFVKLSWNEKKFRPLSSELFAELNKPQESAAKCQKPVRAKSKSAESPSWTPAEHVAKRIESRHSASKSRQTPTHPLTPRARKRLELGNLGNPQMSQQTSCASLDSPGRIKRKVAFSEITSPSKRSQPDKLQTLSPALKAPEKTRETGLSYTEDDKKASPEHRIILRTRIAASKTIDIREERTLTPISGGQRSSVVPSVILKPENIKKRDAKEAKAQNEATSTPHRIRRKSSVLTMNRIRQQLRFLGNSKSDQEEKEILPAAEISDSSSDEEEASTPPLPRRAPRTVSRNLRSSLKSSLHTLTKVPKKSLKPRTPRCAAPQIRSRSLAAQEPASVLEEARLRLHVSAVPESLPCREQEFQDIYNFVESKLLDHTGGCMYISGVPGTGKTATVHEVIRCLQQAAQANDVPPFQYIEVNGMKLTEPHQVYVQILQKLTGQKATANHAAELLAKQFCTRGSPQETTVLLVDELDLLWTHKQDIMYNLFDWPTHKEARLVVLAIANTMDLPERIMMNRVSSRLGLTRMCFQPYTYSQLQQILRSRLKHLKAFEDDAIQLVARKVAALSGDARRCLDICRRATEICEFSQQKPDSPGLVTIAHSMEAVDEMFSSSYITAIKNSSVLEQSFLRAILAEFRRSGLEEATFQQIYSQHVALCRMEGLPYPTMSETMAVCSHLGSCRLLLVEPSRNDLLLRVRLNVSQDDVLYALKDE

T2: MBP-ORC2 (human, UniProt Q13416 1-577)
T2 sequence (looked up): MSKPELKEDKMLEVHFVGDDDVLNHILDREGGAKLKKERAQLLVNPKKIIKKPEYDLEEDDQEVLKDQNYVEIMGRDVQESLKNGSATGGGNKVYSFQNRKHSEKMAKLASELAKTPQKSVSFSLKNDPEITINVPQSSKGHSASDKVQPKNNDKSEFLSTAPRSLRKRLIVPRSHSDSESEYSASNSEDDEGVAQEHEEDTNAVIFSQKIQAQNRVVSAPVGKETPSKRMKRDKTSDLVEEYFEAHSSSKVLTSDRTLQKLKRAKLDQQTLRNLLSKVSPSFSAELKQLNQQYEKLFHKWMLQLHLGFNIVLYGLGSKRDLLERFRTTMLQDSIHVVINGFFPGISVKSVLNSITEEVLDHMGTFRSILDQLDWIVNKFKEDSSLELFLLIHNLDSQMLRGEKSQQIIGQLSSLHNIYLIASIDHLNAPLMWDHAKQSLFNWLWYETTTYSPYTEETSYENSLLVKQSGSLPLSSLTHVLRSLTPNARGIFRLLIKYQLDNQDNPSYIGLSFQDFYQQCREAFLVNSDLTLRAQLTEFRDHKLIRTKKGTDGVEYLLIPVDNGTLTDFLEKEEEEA

T3: MBP-ORC1-PSM123 (Phosphorylation Site Mutant, S258A, S273A and T375A) (human, UniProt Q13415 1-861, S258A | S273A | T375A)
T3 sequence (looked up): T1 sequence (looked up) with S258A, S273A, T375A

T4: MBP-ORC1 R105Q (human, UniProt Q13415 1-861, R105Q)
T4 sequence (looked up): T1 sequence (looked up) with R105Q

T5: MBP-GFP-ORC1-HIS6 (human, UniProt Q13415 1-861)
T5 sequence (looked up): T1 sequence (looked up)

T6: MBP-ORC1-230-400 A-A (Cy motif mutant) (human, UniProt Q13415 230-400, K235A | L237A)
T6 sequence (looked up): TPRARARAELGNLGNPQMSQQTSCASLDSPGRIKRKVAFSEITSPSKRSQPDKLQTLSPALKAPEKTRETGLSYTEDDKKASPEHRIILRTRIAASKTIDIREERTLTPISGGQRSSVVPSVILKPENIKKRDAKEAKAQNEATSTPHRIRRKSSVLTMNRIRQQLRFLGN

T7: MBP-ORC1-230-400 wild type (human, UniProt Q13415 230-400)
T7 sequence (looked up): T6 sequence (looked up) with A6K, A8L

B1: GST-CDC6 wild type, full length (natural protein, human, UniProt Q99741 1-560, looked up)
chain: MPQTRSQAQATISFPKRKLSRALNKAKNSSDAKLEPTNVQTVTCSPRVKALPLSPRKRLGDDNLCNTPHLPPCSPPKQGKKENGPPHSHTLKGRRLVFDNQLTIKSPSKRELAKVHQNKILSSVRKSQEITTNSEQRCPLKKESACVRLFKQEGTCYQQAKLVLNTAVPDRLPAREREMDVIRNFLREHICGKKAGSLYLSGAPGTGKTACLSRILQDLKKELKGFKTIMLNCMSLRTAQAVFPAIAQEICQEEVSRPAGKDMMRKLEKHMTAEKGPMIVLVLDEMDQLDSKGQDVLYTLFEWPWLSNSHLVLIGIANTLDLTDRILPRLQAREKCKPQLLNFPPYTRNQIVTILQDRLNQVSRDQVLDNAAVQFCARKVSAVSGDVRKALDVCRRAIEIVESDVKSQTILKPLSECKSPSEPLIPKRVGLIHISQVISEVDGNRMTLSQEGAQDSFPLQQKILVCSLMLLIRQLKIKEVTLGKLYEAYSKVCRKQQVAAVDQSECLSLSGLLEARGILGLKRNKETRLTKVFFKIEEKEIEHALKDKALIGNILATGLP
B2: MBP-CDC6-HIS6 (natural protein, human, UniProt Q99741 1-560, looked up)
chain: B1 chain
B3: GST-CDC6-HIS6 (natural protein, human, UniProt Q99741 1-560, looked up)
chain: B1 chain
B4: ORC1-180-240-HIS6 wild type (domain or fragment, human, UniProt Q13415 180-240, looked up)
chain: QESAAKCQKPVRAKSKSAESPSWTPAEHVAKRIESRHSASKSRQTPTHPLTPRARKRLELG
B5: MBP-ORC1-350-400 wild type (domain or fragment, human, UniProt Q13415 350-400, looked up)
chain: SVILKPENIKKRDAKEAKAQNEATSTPHRIRRKSSVLTMNRIRQQLRFLGN

Legend:
Assay in all cases: pull-down
[1] = biological target: T1, MBP-ORC1 wild type, full length
[2] = biological target: T2, MBP-ORC2
[3] = biological target: T3, MBP-ORC1-PSM123 (Phosphorylation Site …)
[4] = biological target: T4, MBP-ORC1 R105Q
[5] = biological target: T5, MBP-GFP-ORC1-HIS6
[6] = biological target: B1
[7] = biological target: T6, MBP-ORC1-230-400 A-A (Cy motif mutant)
[8] = biological target: T7, MBP-ORC1-230-400 wild type
[9] = biological target: B4

Binder: B1
binding result [1]: binds
binding result [2]: binds
binding result [3]: binds
binding result [4]: binds

Binder: B2
binding result [5]: binds

Binder: B3
binding result [5]: binds

Binder: B4
binding result [6]: binds
binding result [7]: binds
binding result [8]: binds

Binder: B5
binding result [9]: binds

Source: PMC8106667 (Molecular cell, 2021)
